Laboratory results published in doi:10.1101/2023.07.28.550924 (bioRxiv, 2023).

Tests used:
[1] = biological target: T1, Spirochaeta thermophila YeeE (Spirochaeta thermophila, UniProt G0GAP6 1-328); experiment: BLI
T1 sequence (looked up): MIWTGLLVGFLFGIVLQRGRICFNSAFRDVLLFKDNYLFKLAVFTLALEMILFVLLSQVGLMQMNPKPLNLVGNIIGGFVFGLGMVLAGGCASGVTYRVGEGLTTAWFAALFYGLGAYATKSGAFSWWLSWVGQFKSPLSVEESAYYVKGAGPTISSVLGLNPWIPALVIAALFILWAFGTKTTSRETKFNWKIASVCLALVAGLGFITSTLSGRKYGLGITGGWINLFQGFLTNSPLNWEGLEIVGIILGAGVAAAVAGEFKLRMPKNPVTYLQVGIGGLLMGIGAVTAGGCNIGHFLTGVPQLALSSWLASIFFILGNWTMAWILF

SEC = biological target: the molecule itself; experiment: SEC

Kd [1]: 1600 ± 200 nM
B1: Spirochaeta thermophila YeeD, His-tagged, wild type (natural protein, UniProt G0GAP7 1-80, looked up)
chain: MANYQVSKEIDVRGEVCPIPDVEAKRAVQSANDGEIILVRIDYPLSKERIPETVKKLGSEVLEIEEAAPGEWNIYIKVKK
stoichiometry N (SEC): 2
